“And” between values parts separate entries of the source, which are not always exact repeats. Identical values can stand only once. Like-named read-outs stand apart in the source and are kept apart here.
Assays:
Assay in all cases: mass photometry
[1] = target: At2-CysPRXA F84R variant (Arabidopsis thaliana)
[2] = target: At2-CysPRXA C54S variant (Arabidopsis thaliana)
mass photometry [3] = target: the molecule itself
mass photometry [4] = target: the molecule itself; remark: listed apart in the source
mass photometry [5] = target: the molecule itself; remark: listed apart in the source
mass photometry [6] = target: the molecule itself; remark: listed apart in the source
mass photometry [7] = target: the molecule itself; remark: listed apart in the source

At2-CysPRXA F84R variant (enzyme)
stoichiometry N [1]: 2 and 4

At2-CysPRXA C54S variant (enzyme)
stoichiometry N [2]: 10

B1: human peroxiredoxin HsPRX3, reduced (enzyme, UniProt P30048 62-256, looked up)
chain: APAVTQHAPYFKGTAVVNGEFKDLSLDDFKGKYLVLFFYPLDFTFVCPTEIVAFSDKANEFHDVNCEVVAVSVDSHFSHLAWINTPRKNGGLGHMNIALLSDLTKQISRDYGVLLEGSGLALRGLFIIDPNGVIKHLSVNDLPVGRSVEETLRLVKAFQYVETHGEVCPANWTPDSPTIKPSPAASKEYFQKVNQ
stoichiometry N (mass photometry [3]): 2
stoichiometry N (mass photometry [4]): 40 and 20

B2: human peroxiredoxin HsPRX2, reduced (enzyme, UniProt P32119 1-198, looked up)
chain: MASGNARIGKPAPDFKATAVVDGAFKEVKLSDYKGKYVVLFFYPLDFTFVCPTEIIAFSNRAEDFRKLGCEVLGVSVDSQFTHLAWINTPRKEGGLGPLNIPLLADVTRRLSEDYGVLKTDEGIAYRGLFIIDGKGVLRQITVNDLPVGRSVDEALRLVQAFQYTDEHGEVCPAGWKPGSDTIKPNVDDSKEYFSKHN
stoichiometry N (mass photometry [3]): 2
stoichiometry N (mass photometry [4]): 20

B3: human peroxiredoxin HsPRX1, reduced (enzyme, UniProt Q06830 1-199, looked up)
chain: MSSGNAKIGHPAPNFKATAVMPDGQFKDISLSDYKGKYVVFFFYPLDFTFVCPTEIIAFSDRAEEFKKLNCQVIGASVDSHFCHLAWVNTPKKQGGLGPMNIPLVSDPKRTIAQDYGVLKADEGISFRGLFIIDDKGILRQITVNDLPVGRSVDETLRLVQAFQFTDKHGEVCPAGWKPGSDTIKPDVQKSKEYFSKQK
stoichiometry N (mass photometry [3]): 10

B4: At2-CysPRXA, oxidized (H2O2-treated) (enzyme, Arabidopsis thaliana, UniProt Q96291 66-266, looked up)
chain: KAQADDLPLVGNKAPDFEAEAVFDQEFIKVKLSDYIGKKYVILFFYPLDFTFVCPTEITAFSDRHSEFEKLNTEVLGVSVDSVFSHLAWVQTDRKSGGLGDLNYPLISDVTKSISKSFGVLIHDQGIALRGLFIIDKEGVIQHSTINNLGIGRSVDETMRTLQALQYIQENPDEVCPAGWKPGEKSMKPDPKLSKEYFSAI
modifications: disulfide bond of the peroxidatic cysteine (CysP54) with the resolving cysteine (CysR176)
stoichiometry N (mass photometry [5]): 2

B5: At2-CysPRXA, hyperoxidized (H2O2 plus DTT) (enzyme, Arabidopsis thaliana, UniProt Q96291 66-266, looked up)
chain: KAQADDLPLVGNKAPDFEAEAVFDQEFIKVKLSDYIGKKYVILFFYPLDFTFVCPTEITAFSDRHSEFEKLNTEVLGVSVDSVFSHLAWVQTDRKSGGLGDLNYPLISDVTKSISKSFGVLIHDQGIALRGLFIIDKEGVIQHSTINNLGIGRSVDETMRTLQALQYIQENPDEVCPAGWKPGEKSMKPDPKLSKEYFSAI
modifications: C54 thiol hyperoxidized to a sulfinic acid residue
stoichiometry N (mass photometry [5]): 10

B6: Arabidopsis thaliana 2-Cysteine peroxiredoxin A (At2-CysPRXA), wildtype, reduced (enzyme, UniProt Q96291 66-266, looked up)
chain: KAQADDLPLVGNKAPDFEAEAVFDQEFIKVKLSDYIGKKYVILFFYPLDFTFVCPTEITAFSDRHSEFEKLNTEVLGVSVDSVFSHLAWVQTDRKSGGLGDLNYPLISDVTKSISKSFGVLIHDQGIALRGLFIIDKEGVIQHSTINNLGIGRSVDETMRTLQALQYIQENPDEVCPAGWKPGEKSMKPDPKLSKEYFSAI
ratio of dimer units in the decameric fraction to those in the dimer fraction (mass photometry [6]): ~5 fold
Kd (mass photometry [7]): < 50 nM
stoichiometry N (mass photometry [7]): 20
